Consider one molecule from patent US10428308B2, “Mesoderm and definitive endoderm cell populations” (Icahn School of Medicine at Mount Sinai, priority 2005, dated 2019).

Test [1] relates to CD4-HNF/GFP-T ES cells. As to the kind of experiment: Activin A / Wnt3a induction of ES derived primitive streak like cells in serum free culture, with pathway inhibitors. The format is cell-based, mouse. The conditions noted are these: serum free. How it is done: FIGS. 34A, 34B and 34C depict ES cells differentiated in serum free conditions with Activin A Wnt3a and/or inhibitors of these pathways. ES cells were cultured in serum free media for two days then trypsinized to obtain a single cell population. These cells were then reaggregated with the indicated conditions. At day six, the EBs were plated on matrigel coated dishes in serum free media.
Liu et. al. (1999) Nat. Genet. 22: 361-4. […] Activin stimulation leads to high levels of CD4 expression that persist after loss of GFP-Bry expression at day 6. […] Wnt does however stimulate expression of the posterior primitive streak markers HoxBI and Tbx6, while activin only induces Tbx6. […] At day 6, EBs that were stimulated with either activin or Wnt3a were plated on matrigel in serum free media to allow further development.
Considering that Wnt stimulation induces nodal and activin treatment induces Wnt3 (FIG. 34B), it is unknown whether activin/nodal signaling or Wnt Signaling alone can induce primitive streak formation or whether both factors are required together. CD4-HNF/GFP-T ES cells were induced with either activin or Wnt in conjunction with specific inhibitors of these pathways. DKK1 was used to inhibit Wnt signaling while the small molecule inhibitor SB-431542 (SB) was used to block Nodal/TGFβ signaling. DKK1 functions by binding the Wnt co-receptors, LRP5 and LRP6, which are essential for activation of the βcatenin signaling pathway. […] Inman et. al. (2002) MoI. Pharmacol. 62: 65-74. […] Therefore, to induce mesoderm and endoderm germ layers and their derivative tissues, both activin/Nodal and Wnt signals are required initially.

The subject of test [2] is EBs. As to the kind of experiment: Hematopoietic progenitor potential of activin-induced EBs. The format is cell-based, mouse. The conditions noted are these: day 7 activin-induced EBs, no serum. On the procedure: FIGS. 24A and 24B show the hematopoietic progenitor content of EBs differentiated in the presence of different concentrations of activin. A) Progenitor potential of day 7 EBs, Ep are primitive erythroid progenitors, mac/mix represent definitive hematopoietic progenitors. B) Progenitor potential of day 7 activin-induced EBs following 2.5 days of exposure to serum.
For the generation of blast cell colonies (BL-CFC assay), EB-derived cells were plated at 0.5×-1.5×10^5 cells/ml in 1% methylcellulose supplemented with 10% FCS (Hyclone), vascular endothelial growth factor (VEGF; 5 ng/ml), c-kit ligand (KL; 1% conditioned medium), IL-6 (5 ng/ml) and 25% D4T endothelial cell conditioned medium (Kennedy et al. (1997) Nature 386:488-93). Transitional colonies were generated in the absence of VEGF. Colonies were scored following four days of culture. […] Primitive erythroid colonies were scored at day 5-6 of culture, whereas definitive erythroid (BFU-E), macrophage, and multilineage colonies were counted at 7-10 days of culture. […]
To further evaluate the hematopoietic potential of these EBs, they were analyzed for progenitor potential.

B1: activin: growth factor purchased from R&D systems; induces mesoderm and endoderm (protein, UniProt P08476 311-426, looked up)
Inhibin beta A chain: GLECDGKVNICCKKQFFVSFKDIGWNDWIIAPSGYHANYCEGECPSHIAGTSGSSLSFHSTVINHYRMRGHSPFANLKSCCVPTKLRPMSMLYYDDGQNIIKKDIQNMIVEECGCS
As for B1, in test [1] (day 6 EBs plated on matrigel a further 6 days), the “endodermal gene expression (Alb, Aat, HNF4, Pdxl) by RT-PCR” value is “allowed development of cells expressing the endodermal genes Alb, Aat, HNF4, and Pdxl”. Also, the “induction of GFP^+ CD4^+ cells” value in test [1] (Activin A 25 ng/ml or Wnt3a 100 ng/ml) is “initially induce GFP^+ CD4^+ cells”. Besides, the “primitive (Ep) or definitive (mac/mix) hematopoietic progenitors” value in test [2] is reported as “no appreciable numbers”.
